Biological target: Recombinant human latent TGF-β1 (small latent complex, SLC: LAP with mature TGF-β1) (human) (UniProt P01137)
Test: SPR; Biacore 3000; LAP or latent TGF-β1 amine-coupled to a CM5 chip (1000 RU); PSG9-Fc injected at 6, 4, 2, 1, 0.5 and 0.25 μM, 10 μl/min, 25°C, HBS-EP (0.01 M HEPES pH 7.4, 0.15 M NaCl, 3 mM EDTA, 0.005% P20); 1:1 Langmuir model

Sequence of UniProt P01137 (P01137 whole entry, one chain of several): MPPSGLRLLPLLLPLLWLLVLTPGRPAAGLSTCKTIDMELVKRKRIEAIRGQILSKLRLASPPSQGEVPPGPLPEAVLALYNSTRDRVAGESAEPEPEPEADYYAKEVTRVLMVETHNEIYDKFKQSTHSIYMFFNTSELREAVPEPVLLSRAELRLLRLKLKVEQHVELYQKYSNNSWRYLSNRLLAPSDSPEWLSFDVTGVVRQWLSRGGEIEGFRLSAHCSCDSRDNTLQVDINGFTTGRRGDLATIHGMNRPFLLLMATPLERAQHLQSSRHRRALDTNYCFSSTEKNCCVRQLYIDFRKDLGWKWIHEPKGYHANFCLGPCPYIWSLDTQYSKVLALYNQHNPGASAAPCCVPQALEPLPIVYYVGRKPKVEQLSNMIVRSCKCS

PSG9-Fc (recombinant human pregnancy-specific glycoprotein 9 with the N, A1, A2 and B2 domains, fused to the Fc of human IgG1) (from UniProt Q00887-1 35-426) (Fc fusion)
Kd: 0.56 µM
koff: 0.00065 s⁻¹
kon: 1150 M⁻¹ s⁻¹
